Reference: patent US20180148504A1

Assays:
[1] = target: endogenous folate receptor alpha in human serum and plasma samples (human) (UniProt P15328); assay: ECL sandwich capture 6A2.G7 / detection 6A2.G7; serum incubated overnight with 10 µg/mL MORAb-003; no % sign in this cell
[2] = target: recombinant purified FRα (ECL assay calibrator) (human) (UniProt P15328); assay: ECL sandwich competition; competitors 9F3 capture / 24F12 detection; FRα standard STD01; MORAb-003 10 µg/mL
[3] = target: recombinant purified FRα (ECL assay calibrator) (human) (UniProt P15328); assay: ECL sandwich capture 24H8.D3 / detection 6A2.G7; calibrator incubated overnight with 10 µg/mL MORAb-003
[4] = target: recombinant purified FRα (ECL assay calibrator) (human) (UniProt P15328); assay: ECL sandwich capture 30G6.G6.G4.E9 / detection 24H8.F3; calibrator incubated overnight with 10 µg/mL MORAb-003
[5] = target: recombinant purified FRα (ECL assay calibrator) (human) (UniProt P15328); assay: ECL sandwich capture 28H12.G9 / detection 19D4.B7; calibrator incubated overnight with 10 µg/mL MORAb-003
[6] = target: recombinant purified FRα (ECL assay calibrator) (human) (UniProt P15328); assay: ECL sandwich capture 6A2.G7 / detection 19D4.B7; calibrator incubated overnight with 10 µg/mL MORAb-003
[7] = target: recombinant purified FRα (ECL assay calibrator) (human) (UniProt P15328); assay: ECL sandwich capture 6A2.G7 / detection 1A8.G11.E7; calibrator incubated overnight with 10 µg/mL MORAb-003
[8] = target: recombinant purified FRα (ECL assay calibrator) (human) (UniProt P15328); assay: ECL sandwich capture 6A2.G7 / detection 24H8.D3; calibrator incubated overnight with 10 µg/mL MORAb-003
[9] = target: endogenous folate receptor alpha in human serum and plasma samples (human) (UniProt P15328); assay: ECL sandwich capture 1C6.E12.G8 / detection 19D4.B7; serum incubated overnight with 10 µg/mL MORAb-003
[10] = target: recombinant purified FRα (ECL assay calibrator) (human) (UniProt P15328); assay: ECL sandwich capture 19D2.G9 / detection 19D4.B7; calibrator incubated overnight with 10 µg/mL MORAb-003
[11] = target: endogenous folate receptor alpha in human serum and plasma samples (human) (UniProt P15328); assay: ECL sandwich competition; competitors 24H8.D3 capture / 19D4.B7 detection; plasma samples; MORAb-003 100 µg/mL
[12] = target: recombinant purified FRα (ECL assay calibrator) (human) (UniProt P15328); assay: ECL sandwich capture 19D4.B7 / detection 6A2.G7; calibrator incubated overnight with 10 µg/mL MORAb-003
[13] = target: recombinant purified FRα (ECL assay calibrator) (human) (UniProt P15328); assay: ECL sandwich capture 24H8.F3 / detection 19D4.B7; calibrator incubated overnight with 10 µg/mL MORAb-003
[14] = target: endogenous folate receptor alpha in human serum and plasma samples (human) (UniProt P15328); assay: ECL sandwich capture 19D4.B7 / detection 2F11.F8; serum incubated overnight with 10 µg/mL MORAb-003
[15] = target: endogenous folate receptor alpha in human serum and plasma samples (human) (UniProt P15328); assay: ECL sandwich capture 24H8.F3 / detection 19D4.B7; serum incubated overnight with 10 µg/mL MORAb-003
[16] = target: recombinant purified FRα (ECL assay calibrator) (human) (UniProt P15328); assay: ECL sandwich capture 26A9.C4 / detection 30G6.G6.G4.E9; calibrator incubated overnight with 10 µg/mL MORAb-003
[17] = target: endogenous folate receptor alpha in human serum and plasma samples (human) (UniProt P15328); assay: ECL sandwich competition; competitors 24H8.D3 capture / 19D4.B7 detection; serum of sample #DLSO-015; MORAb-003 100 µg/mL
[18] = target: recombinant purified FRα (ECL assay calibrator) (human) (UniProt P15328); assay: ECL sandwich capture 19D4.B7 / detection 28H12.G9; calibrator incubated overnight with 10 µg/mL MORAb-003
[19] = target: recombinant purified FRα (ECL assay calibrator) (human) (UniProt P15328); assay: ECL sandwich capture 1A8.G11.E7 / detection 6A2.G7; calibrator incubated overnight with 10 µg/mL MORAb-003
[20] = target: endogenous folate receptor alpha in human serum and plasma samples (human) (UniProt P15328); assay: ECL sandwich capture 19D4.B7 / detection 24H8.F3; serum incubated overnight with 10 µg/mL MORAb-003
[21] = target: recombinant purified FRα (ECL assay calibrator) (human) (UniProt P15328); assay: ECL sandwich capture 19D4.B7 / detection 1A8.G11.E7; calibrator incubated overnight with 10 µg/mL MORAb-003
[22] = target: endogenous folate receptor alpha in human serum and plasma samples (human) (UniProt P15328); assay: ECL sandwich capture 19D2.G9 / detection 26A9.C4; serum incubated overnight with 10 µg/mL MORAb-003
[23] = target: recombinant purified FRα (ECL assay calibrator) (human) (UniProt P15328); assay: ECL sandwich capture 1D2.G8.G10 / detection 19D4.B7; calibrator incubated overnight with 10 µg/mL MORAb-003
[24] = target: endogenous folate receptor alpha in human serum and plasma samples (human) (UniProt P15328); assay: ECL sandwich capture 19D4.B7 / detection 1D2.G8.G10; serum incubated overnight with 10 µg/mL MORAb-003

Chain of recombinant purified FRα (ECL assay calibrator) (human) (P15328 25-234 limits assumed): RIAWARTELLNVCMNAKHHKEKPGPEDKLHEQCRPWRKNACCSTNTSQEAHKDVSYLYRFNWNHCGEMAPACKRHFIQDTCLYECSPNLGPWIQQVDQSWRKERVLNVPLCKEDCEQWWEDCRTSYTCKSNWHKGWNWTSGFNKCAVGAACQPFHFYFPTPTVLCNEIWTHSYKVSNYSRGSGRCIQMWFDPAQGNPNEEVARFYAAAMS
Chain of endogenous folate receptor alpha in human serum and plasma samples (human) (P15328 25-234 limits assumed, form in doubt): as the sequence (P15328 25-234 limits assumed) above

B1: farletuzumab (MORAb-003) (antibody, part only; not given: Constant regions, V domains shown, not shown: another chain or arm of the molecule)
VH: EVQLVESGGGVVQPGRSLRLSCSASGFTFSGYGLSWVRQAPGKGLEWVAMISSGGSYTYYADSVKGRFAISRDNAKNTLFLQMDSLRPEDTGVYFCARHGDDPAWFAYWGQGTPVTVSS
VL: DIQLTQSPSSLSASVGDRVTITCSVSSSISSNNLHWYQQKPGKAPKPWIYGTSNLASGVPSRFSGSGSGTDYTFTISSLQPEDIATYYCQQWSSYPYMYTFGQGTKVEIK
- Drug suppression of serum [1]: -45.8
- % of signal without MORAb-003 (MORAb-003 interference) [2]: 68%
- Drug Suppression of Cal Signal at 500 pg/mL [3]: -15%
- Drug Suppression of Cal Signal at 500 pg/mL [4]: -8%
- Drug Suppression of Cal Signal at 500 pg/mL [5]: -17%
- Drug Suppression of Cal Signal at 500 pg/mL [6]: -13%
- Drug Suppression of Cal Signal at 500 pg/mL [7]: 2%
- Drug Suppression of Cal Signal at 500 pg/mL [8]: -9%
- Drug suppression of serum [9]: -52%
- Drug Suppression of Cal Signal at 500 pg/mL [10]: 2%
- percent inhibition (median, plasma) [11]: 4%
- Drug Suppression of Cal Signal at 500 pg/mL [12]: -9%
- Drug Suppression of Cal Signal at 500 pg/mL [13]: 9%
- Drug suppression of serum [14]: 0.82%
- Drug suppression of serum [15]: -13%
- Drug Suppression of Cal Signal at 500 pg/mL [16]: -28%
- percent inhibition (sample #DLSO-015, serum) [17]: 21%
- Drug Suppression of Cal Signal at 500 pg/mL [18]: -21%
- Drug Suppression of Cal Signal at 500 pg/mL [19]: 16%
- Drug suppression of serum [20]: -10.6%
- Drug Suppression of Cal Signal at 500 pg/mL [21]: -2%
- Drug suppression of serum [22]: -55.6%
- Drug Suppression of Cal Signal at 500 pg/mL [23]: -12%
- Drug suppression of serum [24]: -2.12%
